This note sets out measurements from PMC8095197 (bioRxiv, 2021).

The experiment addresses SARS-CoV-2 RBD (SARS-CoV-2, reference (Wuhan-Hu-1) …, UniProt P0DTC2). The experiment can be described thus: ELISA. (In general: ELISA stands for enzyme-linked immunosorbent assay.)

B1: DH1047 IgG (antibody, V domains shown)
VH: QVQLVQSGAEVKKPGASVQVSCQASANTFTNHYIHWVRQAPGQGLEWMGIIYPTGGNTIYAQGFQGRVTMTRDTSLNTIYLELSSLRSEDTAVYYCARDVRVDDSWSGYDLLSGGTYFDYWGQGTLVTVSS
VL: not shown
As to B1, the binding result is listed as “binds”.
